{"source": "patent US11819540B2", "about": "“Methods for treating and preventing neutrophil-derived net toxicity and thrombosis” (CHILDREN'S MEDICAL CENTER CORPORATION, priority 2011, dated 2023)", "molecules": {"B1": {"name": "rhDNase-1: recombinant human DNase-1 (Dornase alpha, Pulmozyme, Genentech) (protein, UniProt P24855 23-282, looked up)", "Deoxyribonuclease-1": "LKIAAFNIQTFGETKMSNATLVSYIVQILSRYDIALVQEVRDSHLTAVGKLLDNLNQDAPDTYHYVVSEPLGRNSYKERYLFVYRPDQVSAVDSYYYDDGCEPCGNDTFNREPAIVRFFSRFTEVREFAIVPLHAAPGDAVAEIDALYDVYLDVQEKWGLEDVMLMGDFNAGCSYVRPSQWSSIRLWTSPTFQWLIPDSADTTATPTHCAYDRIVVAGMLLRGAVVPDSALPFNFQAAYGLSDQLAQAISDHYPVEVMLK"}}, "type_in_all_cases": "in vivo, mouse", "key": {"[1]": {"system": "flow restriction-induced DVT in mice", "test": "IVC stenosis (flow restriction) model of deep vein thrombosis", "excerpt": "Mice were anesthetized by isoflurane-oxygen mixture and placed in a supine position. After laparotomy, intestines were exteriorized and warm sterile saline was applied during the whole procedure to prevent drying. After gentle separation from aorta, IVC was ligated over a 30 G needle by a 7.0 polypropylene suture immediately below the renal veins (towards the tail) and then the needle was removed. The needle was placed outside the vessel so that piercing or any other injury to the IVC wall was completely avoided. This procedure allows for standardized flow restriction without endothelial injury. All visible side branches (usually 1 or 2) were also ligated. After surgery, peritoneum and skin were closed by monofilament absorbable suture and 6.0 silk, respectively. Mice were euthanized after 6 h or 48 h and thrombi developed in the IVC below the suture (towards the tail) were taken for analysis.\nAll mice were treated with DNaseI (Pulmozyme®) immediately after surgery and mice with 48 h IVC stenosis received 3 additional injections every 12 hours. The dose of every injection was 50 μg i.p. (50 μl of non-diluted Pulmozyme) and 10 μg i.v. (in 50 μl of sterile saline) in retro-orbital plexus. Control mice were injected with the same volume of DNase buffer (8.77 mg/ml sodium chloride and 0.15 mg/ml calcium chloride in sterile water for injections).\nFlow restriction model. The murine model of DVT was performed as described. […] A suture was placed on the IVC just below the renal veins over a spacer (diameter of 0.26 mm) and then the spacer was removed. […] All visible IVC side branches were also sutured. Thereafter, peritoneum and skin were closed, mice were sacrificed after 1-48 h and thrombi formed in the IVC were harvested. Sham-operated mice were opened and IVC sutured similarly to the experimental mice, but the suture was removed immediately after ligation.\nHistone infusion. A mixture of all histones isolated from calf thymus (Worthington, Lakewood, NJ, USA) was dissolved in sterile saline and infused intravenously in mice immediately before IVC stenosis application. The dose used (10 mg kg^−1) is known to produce a 25% decrease in platelet count 10 min after infusion. The infused solution of histone mix was essentially endotoxin-free (<0.025 EU mL^−1; measured using the endotoxin detection kit [Lonza, Walkersville, MD, USA] according to the manufacturer's instructions). Control mice received infusion of sterile saline. Mice were sacrificed 1 h after surgery and thrombus formation was examined.\nDNase 1 infusion. DNase 1 (PULMOZYME®, Genentech, San Francisco, CA, USA) was diluted in sterile saline and injected immediately after surgery (50 μg intraperitoneally and 10 μg intravenously). In experiments with 48 h IVC stenosis, injections were repeated three more times after every 12 h. Control mice were injected with the PULMOZYME™ vehicle buffer (8.77 mg mL^−1 sodium chloride and 0.15 mg mL^−1 calcium chloride) diluted in sterile saline."}, "[2]": {"system": "TRALI in BALB/c mice", "test": "Two-event (LPS + anti-H-2Kd mAb) TRALI model", "conditions": "i.v. administration"}, "[3]": {"system": "ischemic stroke (tMCAO) in mice", "test": "Transient middle cerebral artery occlusion (tMCAO) stroke model", "procedure": "Next, the question of whether cerebral ischemia/reperfusion injury effects circulating levels of NETs was addressed. Wild-type C57BL/6 mice were subjected to 2 hours of transient middle cerebral artery occlusion (tMCAO), followed by 22 hours of reperfusion. Focal cerebral ischemia was induced by 60 or 120 min tMCAO. Mice were anesthetized with 2% isoflurane/oxygen mixture. Following a midline skin incision in the neck, the proximal common carotid artery, and the external carotid artery were ligated, and a standardized silicon rubber-coated 6.0 nylon monofilament (6021; Doccol Corp., Redlands, CA) was inserted and advanced via the right internal carotid artery to occlude the origin of the right MCA. […] The intraluminal suture was left in situ during the complete occlusion time. Then animals were re-anesthetized, and the occluding monofilament was withdrawn to allow reperfusion. In animals undergoing a sham treatment, the exact same procedure was followed except that the monofilament was only inserted three quarters of the normal distance that is necessary to occlude the MCA, after which it was immediately withdrawn. Some animals were exclusively used for laser-Doppler flowmetry (Periflux 5000, Perimed, Kings Park, NY) to monitor regional cerebral blood flow (rCBF) in the MCA territory.\nWild type (WT) and […] mice were subjected to 1 h of tMCAO and 23 h of reperfusion after which mice and brains were analyzed. Mice were killed 24 hours after initiation of tMCAO. Brains were quickly removed and cut into 2-mm-thick coronal sections using a mouse brain slice matrix. The slices were stained with 2% 2,3,5-triphenyl-tetrazolium chloride (TTC; Sigma-Aldrich, St. Louis, MO) in PBS to visualize the infarctions. Sections were photographed with a digital Nikon D70 camera and infarct areas (white) were measured blindly using Image J software (National Institutes of Health). Brain infarct volumes were measured by planimetry (FIG. 9A). Compared to the wild-type controls, DNase-1^−/− mice developed larger brain infarctions (84.10±7.24 mm^3 versus 58.50±4.04 mm^3, p<0.05, FIG. 9A).\nNeurological function was assessed, blinded for the mouse genotype 24 h, after initiation of tMCAO, using the modified Bederson score (Bederson et al., Stroke 1986 17:472-6). This test determines global neurological function according to the following scoring system: 0, no deficit; 1, forelimb flexion; 2, decreased resistance to lateral push; 3, unidirectional circling; 4, longitudinal spinning; 5, no movement. The grip test was performed as described (Moran et al., PNAS 1995 92:5341-5). A mouse was placed on a wooden bar (3 mm in diameter, 40 cm long) that is attached to two vertical supports 40 cm above a flat surface. When placing the mouse at a point midway between the supports, the experiment was rated according to the following system: 0, falls off; 1, hangs onto bar by two forepaws; 2, as for 1, but attempts to climb onto bar; 3, hangs onto bar by two forepaws plus one or both hindpaws; 4, hangs onto bar by all four paws plus tail wrapped around bar; 5, escape (where mouse was able to work its way to one of the supports). […] The turns in one versus the other direction were recorded from ten trials for each test. Turning movements that were not part of a rearing movement were not scored. […]"}, "[4]": {"conditions": "6 h and 48 h IVC stenosis, vs vehicle"}, "[5]": {"conditions": "rhDNase-1 vs vehicle, 24 h, p<0.05"}}, "data": [{"molecule": "B1", "values": [{"measurement": "protection from DVT (thrombus incidence)", "setting": "[1]; 6 h and 48 h IVC stenosis", "value": "protected mice from flow restriction-induced DVT"}, {"measurement": "thrombus length", "setting": "[1]; [4]", "value": "significantly reduced"}, {"measurement": "thrombus weight", "setting": "[1]; [4]", "value": "significantly reduced"}, {"measurement": "protection from DVT (thrombus incidence)", "setting": "[1]; 6 h and 48 h IVC stenosis, listed as DNaseI", "value": "greatly reduces the incidence of thrombosis"}, {"measurement": "mice that developed a thrombus", "setting": "[1]; 48 h IVC stenosis, 50 μg i.p. and 10 μg i.v. every 12 h, 2 of 12, vehicle 5 of 8", "value": 17, "unit": "%"}, {"measurement": "TRALI outcome", "setting": "[2]", "value": "did not improve TRALI outcome"}, {"measurement": "brain infarct volume", "setting": "[3]; 1 h tMCAO, 23 h reperfusion, 50 μg i.p. 15 min before surgery and 12 h later, 10 μg i.v. 5 min before reperfusion, vehicle 81.45±9.08", "value": "50.67±8.74", "unit": "mm^3"}, {"measurement": "infarct size smaller than vehicle", "setting": "[3]; 1 h tMCAO, 23 h reperfusion, rhDNase-1 vs vehicle", "value": "approximately 40%"}, {"measurement": "Bederson test score", "setting": "[3]; [5]", "value": "significantly better"}, {"measurement": "corner test result", "setting": "[3]; [5]", "value": "significantly better"}, {"measurement": "grip test score", "setting": "[3]; [5]", "value": "significantly better"}]}]}
